B1: BG7-18 (antibody, V domains shown)
VH: EVQLMESGGGLIQPGGSLRLSCAASGFIVSSNYMSWVRQAPGKGLEWVSVIYSGGGTDYADSVKGRFTISRDNSKNTLFLQMNSLRAEDTAVYYCARGAAMVKELFDYWGQGTQVTVSS
VL: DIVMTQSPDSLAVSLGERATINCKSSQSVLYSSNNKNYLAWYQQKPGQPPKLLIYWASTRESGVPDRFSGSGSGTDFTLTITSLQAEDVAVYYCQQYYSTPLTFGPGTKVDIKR
B2: BG7-15 (antibody, V domains shown)
VH: QVQLVQSGAEVKKPGASVKVSCKASGYTFTSYAISWVRQAPGQGLEWMGWVSAYNGNTNYAQKLQGRVTMTTDTSTNTAYMELRSLRSDDTAIYYCAIPYSSVTFDCWGQGTLVTVSS
VL: EIVLTQSPGTLSLSPGERATLSCRASQSVSGTFLAWYQQKPGQAPRLLISGASSRATGIPDRFSGSGSGTDFTLTISRLEPEDFAVYYCQQYGSSRPTFGQGTKLEIKR

Molecular target: SARS-COV-2 spike on authentic SARS-COV-2 virus (SARS-COV-2, UniProt P0DTC2 14-1273)
Assay: cell-based or functional assay

Binder	LV IC50 [µg/mL]
B1	0.115
B2	0.114

Reference: patent US20240294613A1 (BROAD INSTITUTE, published 2024)
